Source: PMC9352680, “A comprehensive thermodynamic model for RNA binding by the Saccharomyces cerevisiae Pumilio protein PUF4”

T1: PUF4 RNA-binding domain (Saccharomyces cerevisiae, UniProt P25339 537-888)
T1 sequence: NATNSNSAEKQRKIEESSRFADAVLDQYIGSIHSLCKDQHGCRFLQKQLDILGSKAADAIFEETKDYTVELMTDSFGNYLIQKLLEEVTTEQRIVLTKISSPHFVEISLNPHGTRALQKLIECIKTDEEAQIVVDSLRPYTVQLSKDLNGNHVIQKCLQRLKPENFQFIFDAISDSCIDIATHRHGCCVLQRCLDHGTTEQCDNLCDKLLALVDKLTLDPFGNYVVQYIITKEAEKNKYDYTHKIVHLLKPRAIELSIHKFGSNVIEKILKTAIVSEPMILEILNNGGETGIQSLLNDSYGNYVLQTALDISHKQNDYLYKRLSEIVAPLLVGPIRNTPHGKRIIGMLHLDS

B1: Ic_S1_P5E.1_K5.1_C5.1_H5.1_A5.1_[T5C]_[T6A]_F5.1_[T8A]_[T9C]_[A10T]_T5.1 (ssRNA)
RNA: UCUCUUUGUACAAACUUCUCUU
B2: Ic_S1_P5E.1_K5.1_C5.1_H5.1_A5.1_[T5C]_[T6A]_F5.1_[T9C]_[A10T]_T5.1 (ssRNA)
RNA: UCUCUUUGUACAAUCUUCUCUU
B3: Ic_S1_P5E.1_K5.1_C5.1_H5.1_A5.1_[T5C]_[T6A]_[A7C]_F5.1_[T8C]_[T9G]_T5.1 (ssRNA)
RNA: UCUCUUUGUACACCGAUCUCUU
B4: Ic_S1_P5E.1_K5.1_C5.1_H5.1_A5.1_[T5A]_[T6A]_[A7C]_F5.1_[T8A]_[T9A]_[A10C]_T5.1 (ssRNA)
RNA: UCUCUUUGUAAACAACUCUCUU
B5: Ic_S1_P5E.1_K5.1_C5.1_H5.1_A5.1_[T5C]_[T6G]_[A7T]_F5.1_[T8G]_[A10T]_T5.1 (ssRNA)
RNA: UCUCUUUGUACGUGUUUCUCUU
B6: Ic_S1_P5E.1_K5.1_C5.1_H5.1_A5.1_[T6C]_[A7T]_F5.1_[T8A]_T5.1 (ssRNA)
RNA: UCUCUUUGUAUCUAUAUCUCUU
B7: Ic_S1_P5E.1_K5.1_C5.1_H5.1_A5.1_[T5C]_[A7G]_F5.1_[T8C]_[T9A]_[A10C]_T5.1 (ssRNA)
RNA: UCUCUUUGUACUGCACUCUCUU
B8: Ic_S1_P5E.1_K5.1_C5.1_H5.1_A5.1_[T5A]_[A7G]_F5.1_[A10T]_T5.1 (ssRNA)
RNA: UCUCUUUGUAAUGUUUUCUCUU
B9: Ic_S1_P5E.1_K5.1_C5.1_H5.1_A5.1_[T5A]_[T6A]_[A7G]_F5.1_[T8C]_[T9C]_T5.1 (ssRNA)
RNA: UCUCUUUGUAAAGCCAUCUCUU
B10: Ib_S1_P3E.1_K3.1_C3.1_H3.1_[G2C]_[A4G]_A3.1_F3.1_T3.1 (ssRNA)
RNA: UCUCUUUCUGUAUAUCUCUU
B11: Ic_S1_P5E.1_K5.1_C5.1_H5.1_A5.1_[T6C]_[A7T]_F5.1_[T8C]_[A10G]_T5.1 (ssRNA)
RNA: UCUCUUUGUAUCUCUGUCUCUU
B12: Ic_S1_P5E.1_K5.1_C5.1_H5.1_A5.1_F5.1_[T8C]_[T9C]_[A10T]_T5.1 (ssRNA)
RNA: UCUCUUUGUAUUACCUUCUCUU
B13: Ic_S1_P5E.1_K5.1_C5.1_H5.1_A5.1_[T6G]_[A7T]_F5.1_[T8A]_[T9A]_[A10G]_T5.1 (ssRNA)
RNA: UCUCUUUGUAUGUAAGUCUCUU
B14: Ic_S1_P5E.1_K5.1_C5.1_H5.1_A5.1_[T6C]_[A7G]_F5.1_[T8A]_[A10C]_T5.1 (ssRNA)
RNA: UCUCUUUGUAUCGAUCUCUCUU
B15: Ic_S1_P5E.1_K5.1_C5.1_H5.1_A5.1_[T5A]_F5.1_[T8A]_[T9C]_[A10T]_T5.1 (ssRNA)
RNA: UCUCUUUGUAAUAACUUCUCUU
B16: Ic_S1_P5E.1_K5.1_C5.1_H5.1_A5.1_[T5A]_[A7G]_F5.1_[T8C]_[A10T]_T5.1 (ssRNA)
RNA: UCUCUUUGUAAUGCUUUCUCUU
B17: Ic_S1_P5E.1_K5.1_C5.1_H5.1_A5.1_[T5A]_[A7T]_F5.1_[T9C]_[A10G]_T5.1 (ssRNA)
RNA: UCUCUUUGUAAUUUCGUCUCUU
B18: Ic_S1_P5E.1_K5.1_C5.1_H5.1_A5.1_[T5A]_[T6A]_[A7C]_F5.1_[T8C]_[T9G]_[A10C]_T5.1 (ssRNA)
RNA: UCUCUUUGUAAACCGCUCUCUU
B19: Ic_S1_P5E.1_K5.1_C5.1_H5.1_A5.1_[T5G]_[A7T]_F5.1_[T8C]_[T9C]_[A10C]_T5.1 (ssRNA)
RNA: UCUCUUUGUAGUUCCCUCUCUU
B20: Ic_S1_P5E.1_K5.1_C5.1_H5.1_A5.1_[T5C]_[T6A]_[A7G]_F5.1_[T9C]_[A10C]_T5.1 (ssRNA)
RNA: UCUCUUUGUACAGUCCUCUCUU
B21: Ic_S1_P5E.1_K5.1_C5.1_H5.1_A5.1_[T5C]_[A7C]_F5.1_[T9G]_[A10T]_T5.1 (ssRNA)
RNA: UCUCUUUGUACUCUGUUCUCUU
B22: Ic_S1_P5E.1_K5.1_C5.1_H5.1_A5.1_[T6G]_[A7G]_F5.1_[T9A]_[A10T]_T5.1 (ssRNA)
RNA: UCUCUUUGUAUGGUAUUCUCUU
B23: Ic_S1_P5E.1_K5.1_C5.1_H5.1_A5.1_[T6A]_[A7C]_F5.1_[T8C]_[T9C]_[A10G]_T5.1 (ssRNA)
RNA: UCUCUUUGUAUACCCGUCUCUU
B24: Ic_S1_P5E.1_K5.1_C5.1_H5.1_A5.1_[T6A]_F5.1_[T8A]_[T9A]_T5.1 (ssRNA)
RNA: UCUCUUUGUAUAAAAAUCUCUU
B25: Ic_S1_P5E.1_K5.1_C5.1_H5.1_A5.1_[T5C]_[T6G]_F5.1_[T8A]_[A10T]_T5.1 (ssRNA)
RNA: UCUCUUUGUACGAAUUUCUCUU
B26: Ic_S1_P5E.1_K5.1_C5.1_H5.1_A5.1_[T5C]_[A7G]_F5.1_[T9G]_[A10T]_T5.1 (ssRNA)
RNA: UCUCUUUGUACUGUGUUCUCUU
B27: Ic_S1_P5E.1_K5.1_C5.1_H5.1_A5.1_[T5A]_[T6A]_[A7T]_F5.1_[T8C]_[T9A]_[A10G]_T5.1 (ssRNA)
RNA: UCUCUUUGUAAAUCAGUCUCUU
B28: Ib_S1_P3E.1_K3.1_C3.1_H3.1_[G2C]_[A4C]_A3.1_F3.1_T3.1 (ssRNA)
RNA: UCUCUUUCUCUAUAUCUCUU
B29: Ic_S1_P5E.1_K5.1_C5.1_H5.1_A5.1_[T6G]_[A7G]_F5.1_[A10G]_T5.1 (ssRNA)
RNA: UCUCUUUGUAUGGUUGUCUCUU
B30: Ic_S1_P5E.1_K5.1_C5.1_H5.1_A5.1_[T5A]_[T6C]_[A7C]_F5.1_[T8A]_[A10G]_T5.1 (ssRNA)
RNA: UCUCUUUGUAACCAUGUCUCUU
B31: Ic_S1_P5E.1_K5.1_C5.1_H5.1_A5.1_[T5A]_[A7T]_F5.1_[T9G]_[A10C]_T5.1 (ssRNA)
RNA: UCUCUUUGUAAUUUGCUCUCUU
B32: Ic_S1_P5E.1_K5.1_C5.1_H5.1_A5.1_[T5C]_[T6C]_[A7C]_F5.1_[T8C]_[T9A]_T5.1 (ssRNA)
RNA: UCUCUUUGUACCCCAAUCUCUU

Target: T1, PUF4 RNA-binding domain
Assay: Mg; RNA-MaP; 20 mM Na-HEPES pH 7.4, 30 mM KOAc, 0.75 mM MgCl2, 0.1% Tween-20, 5% glycerol, 0.1 mg/mL BSA, 2 mM DTT; 25 C; 0.0125-409.6 nM protein
Conditions: tags: N-His6-TEV cleaved; C-SNAP kept, Cy3B-labelled; label: tethered on chip by stalled RNA polymerase

Binder | Kd
B1 | 93.1 nM
B2 | 25.9 nM
B3 | 425 nM
B4 | 88.4 nM
B5 | 98.8 nM
B6 | 11.5 nM
B7 | 724 nM
B8 | 118 nM
B9 | 1060 nM
B10 | 27.6 nM
B11 | 58.6 nM
B12 | 496 nM
B13 | 446 nM
B14 | 1870 nM
B15 | 1100 nM
B16 | 181 nM

Binder | Kd
B17 | 92.7 nM
B18 | 625 nM
B19 | 1650 nM
B20 | 13.5 nM
B21 | 21.5 nM
B22 | 13.3 nM
B23 | 675 nM
B24 | 42 nM
B25 | 693 nM
B26 | 27.2 nM
B27 | 26.1 nM
B28 | > 2300 nM
B29 | 717 nM
B30 | 481 nM
B31 | 81.9 nM
B32 | 1350 nM
